This note sets out measurements from paper PMC3159451.

Among the targets are cMBD2 MBD WT (Gallus gallus (chicken), UniProt Q5EFL0 2-71); cMBD2 MBD R67M (Gallus gallus (chicken), UniProt Q5EFL0 2-71, R66M); cMBD2 MBD Y36F (Gallus gallus (chicken), UniProt Q5EFL0 2-71, Y35F); cMBD2 MBD R46C (Gallus gallus (chicken), UniProt Q5EFL0 2-71, R45C); cMBD2 MBD K19W (Gallus gallus (chicken), UniProt Q5EFL0 2-71, K18W); cMBD2 MBD K32A (Gallus gallus (chicken), UniProt Q5EFL0 2-71, K31A).

Common to all, as to assay: SPR
On the technique in general: In SPR one partner is held on a chip, and binding of the other changes the refractive index at the surface.

B1: Inverted (dsDNA)
DNA 1: GGACCGACTC
DNA 2: GAGTCGGTCC
modifications: 5-methyl-C at position 5 of both strands
In general, Kd refers to the free concentration of one partner at which half of the binding sites on the other are occupied at equilibrium, for simple one-to-one binding. A lower Kd goes with tighter binding. The molecule B1 gave a Kd with cMBD2 MBD WT of 2.3 ± 0.5 µM.

B2: Gua107Thy (dsDNA)
DNA 1: GGATCGTCTC
DNA 2: GAGACGATCC
modifications: 5-methyl-C at position 5 of both strands
In the data set with cMBD2 MBD WT, B2 gave a Kd of 29 ± 2 µM.

B3: rho-globin mCpG WT 10 bp (dsDNA)
DNA 1: GGATCGGCTC
DNA 2: GAGCCGATCC
modifications: 5-methyl-C at position 5 of both strands (mC105, mC115)
As to B3, the Kd with cMBD2 MBD R67M was 197 ± 17 µM; in the data set with cMBD2 MBD Y36F, 109 ± 3 µM; with cMBD2 MBD WT it was 2.1 ± 0.1 µM; in the data set with cMBD2 MBD R46C, 590 ± 71 µM; in the data set with cMBD2 MBD K19W, 135 ± 17 µM; with cMBD2 MBD K32A, 291 ± 19 µM.

B4: Thy104Gua (dsDNA)
DNA 1: GGAGCGGCTC
DNA 2: GAGCCGCTCC
modifications: 5-methyl-C at position 5 of both strands
Consider B4, for which, in the data set with cMBD2 MBD WT, binding was characterised by a dissociation constant (Kd) of 2.2 ± 0.1 µM.
